According to US20240093191A1, “COMPOSITIONS AND METHODS FOR TREATING DISEASE ASSOCIATED WITH DUX4 OVEREXPRESSION” (RESEARCH INSTITUTE AT NATIONWIDE CHILDREN'S HOSPITAL, priority 2021, published 2024):

B1: U6.mir-675-2.5: mir-675 construct with modified 5' and 3' flanking sequences (nucleic acid)
DNA: TCTAGAGATCCGACGCCGCCATCTCTAGGCCCGCGCCGGCCCCCTCGCACAGACTTGTGGGAGAAGCTCGGCTACTCCCCTGCCCCGGTTAATTTGCATATAATATTTCCTAGTAACTATAGAGGCTTAATGTGCGATAAAAGACAGATAATCTGTTCTTTTTAATACTAGCTACATTTTACATGATAGGCTTGGATTTCTATAAGAGATACAAATACTAAATTATTATTTTAAAAAACAGCACAAAAGGAAACTCACCCTAACTGTAAAGTAATTGTGTGTTTTGAGACTATAAATATCCCTTGGAGAAAAGCCTTGTTAACGCGAATCACACTGCCCCAGGGTCTGGTGCGGAGAGGGCCCACAGTGGACTTGGTGACGCTGTATGCCCTCACCGCTCAGCCCCTGGGGATACTCCTAATCACACTTTTTT
B2: U6.mir-675F: U6 mir-675 construct with flanking sequences similar to H1.mir-675 (nucleic acid)
DNA: GACGCCGCCATCTCTAGGCCCGCGCCGGCCCCCTCGCACAGACTTGTGGGAGAAGCTCGGCTACTCCCCTGCCCCGGTTAATTTGCATATAATATTTCCTAGTAACTATAGAGGCTTAATGTGCGATAAAAGACAGATAATCTGTTCTTTTTAATACTAGCTACATTTTACATGATAGGCTTGGATTTCTATAAGAGATACAAATACTAAATTATTATTTTAAAAAACAGCACAAAAGGAAACTCACCCTAACTGTAAAGTAATTGTGTGTTTTGAGACTATAAATATCCCTTGGAGAAAAGCCTTGTTTGCCCCAGGGTCTGGTGCGGAGAGGGCCCACAGTGGACTTGGTGACGCTGTATGCCCTCACCGCTCAGCCCCTGGGGAATTCTTCGATTCTGCTTTTTT
B3: U6.mir-675-2.3: mir-675 construct with modified 5' and 3' flanking sequences (nucleic acid)
DNA: TCTAGAGATCCGACGCCGCCATCTCTAGGCCCGCGCCGGCCCCCTCGCACAGACTTGTGGGAGAAGCTCGGCTACTCCCCTGCCCCGGTTAATTTGCATATAATATTTCCTAGTAACTATAGAGGCTTAATGTGCGATAAAAGACAGATAATCTGTTCTTTTTAATACTAGCTACATTTTACATGATAGGCTTGGATTTCTATAAGAGATACAAATACTAAATTATTATTTTAAAAAACAGCACAAAAGGAAACTCACCCTAACTGTAAAGTAATTGTGTGTTTTGAGACTATAAATATCCCTTGGAGAAAAGCCTTGTTTGAATCACACTGCCCCAGGGTCTGGTGCGGAGAGGGCCCACAGTGGACTTGGTGACGCTGTATGCCCTCACCGCTCAGCCCCTGGGGATACTCCTAATCACACTTTTTT
B4: U6.mir-675-2.1: mir-675 construct with modified 5' and 3' flanking sequences (nucleic acid)
DNA: TCTAGAGATCCGACGCCGCCATCTCTAGGCCCGCGCCGGCCCCCTCGCACAGACTTGTGGGAGAAGCTCGGCTACTCCCCTGCCCCGGTTAATTTGCATATAATATTTCCTAGTAACTATAGAGGCTTAATGTGCGATAAAAGACAGATAATCTGTTCTTTTTAATACTAGCTACATTTTACATGATAGGCTTGGATTTCTATAAGAGATACAAATACTAAATTATTATTTTAAAAAACAGCACAAAAGGAAACTCACCCTAACTGTAAAGTAATTGTGTGTTTTGAGACTATAAATATCCCTTGGAGAAAAGCCTTGTTTGCCCCAGGGTCTGGTGCGGAGAGGGCCCACAGTGGACTTGGTGACGCTGTATGCCCTCACCGCTCAGCCCCTGGGGTAACTCCTAATCACACTTTTTT

These molecules were tested on DUX4 protein (assay: Western blot of V5-tagged DUX4 protein in co-transfected HEK293 cells). Settings: CMV.DUX4-FL/CMV.eGFP; HEK293; molar ratio 1 to 3; eGFP normalizer; relative to U6-milacZ; N = 3-8.
Assay type: cell-based, human
Description: Western Blots. […] 50 mM Tris (pH 7.5-8.0), 150 mM NaCl, 0.1% (v/v) SDS, 0.5% (v/v) deoxycholate, 1% (v/v) triton X-100 (Fisher Scientific) and 1 tablet of protease inhibitor (ThermoFisher Scientific) per 10 mL of buffer. The total protein extract was quantified using the DC Protein Assay (Bio-Rad). Twenty microgram samples were separated on 12% SDS-PAGE, transferred to nitrocellulose membrane, using the wet transfer system, and incubated with the following antibodies: mouse monoclonal antibody to V5 (horseradish peroxidase [HRP]-coupled) [1:5,000 in 5% milk TBST buffer (150 mM NaCl, 50 mM Tris-HCl pH 7.4 and 0.1% Tween 20 (Fisher Scientific)), R961-25; Invitrogen); rabbit polyclonal eGFP antibody (1:50,000 in 3% BSA PBS, ab290; Abcam); mouse monoclonal β-actin antibodies (1:60,000; Sigma, St Louis, MO); overnight at 4° C. When using the eGFP antibody, membranes were blocked 30 mins with 3% BSA PBS prior to blotting. eGFP-probed blots were washed five times, 5 min each with 0.5% Tween 20 (Fisher Scientific) in TBST buffer, and then incubated with HRP-coupled goat anti-rabbit secondary antibody (1:250,000 in 3% BSA PBS, 115-035-144; Jackson ImmunoResearch) for 2 hours at room temperature. V5-probed blots were washed five times, 5 min each with 0.1% Tween 20 in TBST buffer. Following washes, blots were developed using Immobilon Western HRP substrate (Millipore) and exposed to film. DUX4.V5, and eGFP quantification was assessed using ImageJ.

Row | Molecule | Average inhibition efficiency (%) of DUX4 protein levels
1 | B1 | 56 ± 6 (N = 5) %
2 | B2 | 64 ± 6 (N = 6) %
3 | B3 | 64 ± 10 (N = 8) %
4 | B4 | 64 ± 4 (N = 8) %

The molecules below were run on mir-675-5p (assay: ddPCR of all mature mir-675-5p sequences (TaqMan Advanced miRNA cDNA synthesis) in HEK293 cells). Settings: not given.
Assay type: cell-based, human
Description: Digital Droplet PCR (ddPCR). For mir-675 and mi405 constructs, RNA extraction was carried out as described for QPCR above. For cDNA synthesis, the TaqMan advanced cDNA synthesis kit (Thermo Fisher) was used and cDNA was prepared by following manufacturer's instructions. ddPCR was carried out using 1× ddPCR Supermix for probes (No dUTP) (Bio-Rad), 1× commercially available mir-675 advanced TaqMan probe, or a custom made mi405 advanced TaqMan probe (ThermoFisher) and 50 ng of cDNA. For DUX4 cDNA synthesis, the High-Capacity cDNA Reverse Transcription Kit (Applied Biosystems) was used according to manufacturer's instructions. Within the same cDNA reaction, 1×RT random hexamer primers and 25 pmoles of the Oligo(dT) primer were used to generate cDNA for DUX4 and DUX4-responsive biomarkers and for mouse Rpl13A, used as a reference gene. To quantify DUX4, the ddPCR reaction mixture (20 μL) contained 1× ddPCR Evagreen Supermix (Bio-Rad), 1 μM of forward and reverse DUX4 primers (Sharma et al., J Genet Syndr Gene Ther 2016 August; 7(4):303. doi: 10.4172/2157-7412.1000303. Epub 2016 Aug. 8), and 50 ng of cDNA. To quantify Rpl13A and DUX4-responsive biomarkers (Trim36 and Wfdc3), the 1× ddPCR Supermix for probes (No dUTP) and TaqMan specific probes were used for each of the genes. Droplets were generated using the Automatic Droplet generator QX200 AutoDG (Bio-Rad), the reactions were amplified in a C1000 Touch™ Thermal Cycler with 96-Deep Well Reaction Module (Bio-Rad). Cycling conditions were set up following the QX200 ddPCR Evagreen Supermix protocol. All assays are compatible with an annealing temperature of 58° C. Droplets were then read using the QX200 droplet reader (Bio-Rad). Finally, data were analyzed using the QuantaSoft analysis software (Bio-Rad). For quantification, each reaction of 20 μL was estimated to give at least 10,000 acceptable droplets.
In order to quantify the level of all these mature sequences, the TaqMan advanced miRNA cDNA synthesis method that uses universal reverse transcription (RT) chemistry to synthesize cDNA templates that can be quantified using the TaqMan Advanced miRNA probes was used. In this method, most of the processed mature miRNA sequences were quantified.

Row | Molecule | fold change of all mature mir-675-5p sequences compared to U6.mir-675 [%]
5 | B1 | 153±52
6 | B2 | 133±38
7 | B3 | 114±8
8 | B4 | 142±45

Each molecule was assayed on mir-675-5p (assay: Small-transcript northern blot of mir-675 processing in HEK293 cells). Settings: HEK293; anti-mir-675-5p biotinylated probe.
Assay type: cell-based, human
From the text: Small-Transcript Northern Blots. […] (SEQ ID NO: 148)).

Row | Molecule | mature mir-675-5p bands on northern blot
9 | B2 | detectable mir-675 mature sequences
10 | B4 | detectable mir-675 mature sequences
